This is an account of results in patent US6428997B1, “Aminopeptidase derived from Bacillus licheniformis and process for preparation of natural type proteins” (LG Chemical Ltd., priority 1997, dated 2002).

Substrate in series [1]: CC(C)C[C@H](N)C(=O)Nc1ccc([N+](=O)[O-])cc1
As to the kind of experiment: Kinetic parameters of Bacillus licheniformis aminopeptidase (Lineweaver-Burk). The following applies: other: Tris-Cl pH 8.0, 37° C., 0.5 U enzyme, absorbance at 405 nm, Lineweaver-Burk plot. Format: biochemical. The procedure:
(§1) Aminopeptidase activities of this invention were measured by the method of Pfleiderer (Pfleiderer, Meth. Enzymol., 19, 514-521, 1970). Precisely, 1 U of enzyme activity defines the enzyme quantity changing 1 absorbance at 405 nm which is measured by the process adding aminopeptidase in 1 ml solution of […] Tris-Cl (pH 8.0) and 2 mM leucine-p-nitroanilide (Sigma, USA), incubating at 37° C. for 1 min, then adding 100 μl of 70% acetic acid to stop the reaction. At that time leucine-p-nitroanilide was dissolved in dimethylsulfoxide (DMSO) to make 100 mM solution.
(§2) In order to compare substrate specificity of aminopeptidase of this invention, 2 kinds of substrate were used. In detail, one was synthetic substrates of p-nitroanilide derivative and purchased from Sigma, USA and the other was oligopeptide such as methionyl oligopeptide of SEQ. ID. NO: 1 which have amino acid sequence similar to N-terminus of methionyl HGH and leucyl oligopeptide of SEQ. ID. NO: 2. The oligopeptides of this invention were synthesized.
(§3) Enzyme reaction of aminopeptidase was performed by the process described in Reference Examples. At that time p-nitroanilide derivative was used as synthetic substrate. Leucine p-nitroanilide was used as substrate to perform the reaction in concentration of 0.03125, 0.0625, 0.125, 0.25, 0.5, 1 mM and methionine p-nitroanilide in 0.125, 0.25, 0.5, 1 mM and aminopeptidase in 0.5 U respectively. Above reactions using leucine-p-nitroanilide proceeded for 2 min and methionine-p-nitroanilide for 40 min. Then 70% acetic acid was added to stop the reactions and absorbance at 405 nm was measured. The product concentration was measured by adopting absorbance constant ε405=9450M^−1 cm^−1.
(§4) In reaction condition mentioned above, initial velocity of enzyme reaction was measured with varying the substrate concentration. Lineweaver-Burk plot was used to determine Km value and Maximum reaction velocity of aminopeptidase from Bacillus licheniformis. In addition kcat and kcat/Km was determined by using Km value and maximum reaction velocity described above.

Substrate in series [2]: CSCC[C@H](N)C(=O)Nc1ccc([N+](=O)[O-])cc1
Described as above. Format: biochemical. The settings on record: other: Tris-Cl pH 8.0, 37° C., 0.5 U enzyme, absorbance at 405 nm, Lineweaver-Burk plot. The procedure: as §1, §2, §3, §4

B1: Bacillus licheniformis aminopeptidase (Bacillus licheniformis DSM 13 = ATCC 14580) (protein)
chain: KFSKKFNENRAYQTIYHLSETIGPRVTGTAEEKKSAAFIASQMKKSNLKVSTQKFSIPDRLEGTLTVQGNNVPARPAAGSAPTAAEGLAAPLYDAGLGLPGDFTEEAKGKIAVILRGELTFYEKAKNAADAGASGVIIYNNVDSLVPLTPNLSGNKVDIPVVGVKKEDGEKLLSEQEAILKLKAHKNQTSQNVIGVRKAKGVKNPDIVYVTSHYDSVPYAPGANDNASGTSVVLELARILKTVPADKEIRFITFGAEEIGLLGSRHYVSTLSNQEVKRSVANFNLDMVATSWENASQLYINTPDGSANLVWQLSKAASLSLGKDVLFLHQGGSSDHVPFHEAGIDSANFIWREPGTGALEPWYHTPYDTIEHISKDRLKTAGQIAGTAVYNFTKKENRKPSYSSVAQ
Regarding B1, in series [1], the Michaelis constant (Km) amounted to 739 µM, the turnover number (kcat) came to 130 s⁻¹ and the catalytic efficiency (kcat/Km) amounted to 176000 M⁻¹ s⁻¹. In series [2], the Michaelis constant (Km) turned out to be 1004 µM, the kcat turned out to be 2.59 s⁻¹ and the kcat/Km is 2580 M⁻¹ s⁻¹.

As a reminder, the Km is the substrate concentration at which the rate is half of its maximum. By kcat is commonly meant the number of substrate molecules converted per active site and unit of time at saturation. The kcat/Km is the second-order rate constant that governs catalysis at low substrate concentration.
